This note sets out measurements from patent US20210238262A1 (HENRY M JACKSON FOUNDATION FOR THE ADVANCEMENT OF MILITARY …, published 2021).

The target of test [1] is T1, Recombinant DENV-2 sE (1-396) from strain 16681-PDK53 with C-terminal AviTag and poly-histidine tags (Dengue virus serotype 2 strain …, UniProt P29991 281-676, biotinylated on the AviTag for BLI).
T1 construct: Produced in Expi293F cells; biotinylated for BLI; also called DENV-2 E
Briefly: BLI and ELISA on DENV-2 E glycoprotein. A general note: ELISA stands for enzyme-linked immunosorbent assay.

In test [2] the target is ZIKV H/PF/2013 reporter virus particle with E mutant (D67N, A69T) (Zika virus strain H/PF/2013). Briefly: cell-based or functional assay.
Test [3] has as its target Whole purified ZIKV (ZIKV/Brazil/2015) virions (Zika virus, ZIKV/Brazil/2015). Briefly: cell-based or functional assay.
Test [4] deals with T1, Recombinant DENV-2 sE (1-396) from …. The test can be described thus: ELISA on DENV-2 E.
Test [5] concerns the target ZIKV PR (Puerto Rican strain, PRVABC59) virus (Zika virus strain PRVABC59). The test can be described thus: cell-based or functional assay.
The target in test [6] is DENV-2 (S16803) virus (Dengue virus serotype 2 strain S16803). The test can be described thus: cell-based or functional assay.

B1: rhMZ103-A (antibody, V domains shown)
VH: QVQLQESGPGLVKPSETLSLTCAVSGGSISGGYDWSWIRQPPGKGLEWIGYIYGSSGSTNYNPSLKNRVTISKDTSKNQFSLKLSSVTAADTAVYYCARPAYYEDDYGYYYTTPIFDYWGQGVLVTVSS
VL: QSVLTQPPSASGAPGQSVTISCSGSSSNIGSNYVYWYQQLPGTAPKLLIYYSNQRPSGVPDRFSGSKSGTSASLAITGLRSEDEADYYCAAWDNSLSSVLFGGGTRLTVLG
Regarding B1, the binding result in test [1] was “no binding”. The “neutralization in the reporter virus particle (RVP) assay, mutant against wild-type ZIKV H/PF/2013” value in test [2] was 5 fold. Further, the “FlowNT50 neutralization, IC50” value in test [3] was in the range of 1 to 3 µg/mL.

B2: rhMZ100-C (antibody, V domains shown)
VH: EVQLVESGGGLVQPGGSLRLSCAASGFTFSSDGMSWVRQAPGKGLEWVSYISSGGATTYYADSVKGRFTISRDNSKNTLSLQMNSLRGEDTAVYYCAKDITAPGRNGLDSWGQGVVVTVSS
VL: QSVLTQPPSLSASPGASARLPCTLSSDLNVGTKNMYWYQQKPGSAPRLFLYYYSDSDKQLGPGVPNRVSGSKETSSNTAFLLISGLQPEDEADYYCQVYDNSARVFGGGTRLTVLG
With B2, the binding result in test [1] was “no binding”. Also, the “FlowNT50 neutralization, IC50” value in test [3] is 1 to 3 µg/mL.

B3: MZ20 (antibody, V domains shown)
VH: EVQVVESGGGLVKPGGSLRLSCAASGFTFSHFYMTWIRQAPGKGLESISYIGGTGSPTYYADSVVGRFTISRDNAKNSVYLEMNSLRAEDTAIYYCVRAGGARIENWGQGTLVIVSS
VL: DIVMTQSPSSLSASVGDRVTITCQASHDINIYLNWYQQRPGKAPKLLIYDASRLETGVPSRFSGTGSGTDFTFTISNLQPEDFATYFCQHYYTLPRTFGQGTKVDIKR
Take B3: the binding result in test [4] is recorded as “binds”.

B4: rhMZ123-A (antibody, V domains shown)
VH: QLVQSGAEVKRPGESLRISCKTSGYSFTSYWISWVRQMPGKGLEWMGMIYPGDSDTRYSPSFQGQVTISADKSISTAYLQWSSLKASDTATYYCAKVDSSGWTNYFDYWGQGVLVTVSS
VL: QSALTQPPSVSKSLGQSVTISCTGTSSDIGGYNGVSWYQQHSGTAPRLLIYDVSKRPSGVSDRFSGSKSGNTASLTISGLQAEDEADYYCCSYRSGSTYIFGAGTRLTVLG
As to B4, in test [1], the binding result is given as “no binding”.

B5: rhMZ133-C (antibody, V domains shown)
VH: EVQLVESGGGLVQPGGSLRLSCAASGFTFSDYYMSWVRQAPGKGPEWVGFIRNKANGGTAEYAASVKGRFTVSRDDSKSIASLQMNSLKTEDTAVYYCAKHYCTGSGCYGAGLDSWGQGVVVTVSS
VL: QSVLTQPPSVSKSLGQSVTISCTGTSSDIGGSNDVSWYQQHPGTAPRLLIYNVSKRPSGVSDRFSGSKSGNTASLTISGLQAEDEADYYCCSYRSGSTLFGGGTRLTVLG
Consider B5, for which the binding result in test [1] is given as “no binding”. Further, the “neutralization in the reporter virus particle (RVP) assay, mutant against wild-type ZIKV H/PF/2013” value in test [2] came to 2 fold.

B6: MZ56 (antibody, V domains shown)
VH: EVQLVESGGDLVQPGGSLRLSCAASGFTFSNYAMHWVRQAPGKGLESVSAIGSNGDSIFYASSVKGRFTISRDNSKNTLYLQMGSLRADDMAVYFCARGWYYYDSRAYWYFDLWGRGTLVTVSS
VL: QPVLTQPASVSGSPGQSITISCTGTTSDVDDYNHVSWYQQYPGKAPRVMLYDVTKRPSGVPDRFSGSKSGNTASLTISGLQSEDEADYYCCSFADSHAIFGGGTKVTVLG
Take B6: the binding result in test [4] was “binds”.

B7: rhMZ119-D (antibody, V domains shown)
VH: EVQLVQSGAEVKRPGESLKISCKTSGYSFTSYWISWVRQMPGKGLEWMGAIDPSDSDTRYSPSFQGQVTISADKSISTAYLQWSSLKASDSATYYCAKEGIAARSLDVWGRGVLVTVSS
VL: SYELTQPPSVSVSPGQTARITCSGDALPKKYAYWFQQKPGQSPVLIIYEDSKRPSGIPERFSGSSSGTVATLTISGAQVEDEADYYCYSTDSSGYHGLFGGGTRLTVLG
On to B7, for which, in test [1], the binding result is “no binding”. Further, the “FlowNT50 neutralization, U937-DC-SIGN cells, IC50” value in test [3] came to 0.031 µg/mL.

B8: MZ54 (antibody, V domains shown)
VH: EVQLVESGGGLVKPGGSLRLSCSASGFNFRDFYMGWVRQAPGKGLQWVSHIGDSGGAIYYTDSVEGRFSISRDNAKNSLYLQMNSLRVEDTAIYYCVCAGGGRTDYWGQGTLVTVSS
VL: DIVMTQSPSSLSASVGDRVTITCQATQDINIYLNWYQQKPGQAPKLLIYDASRLETGVPSRFSGRGSGTDFTFTISSLQPEDFGTYYCQHYYTVPRTFGQGTKVESRR
As for B8, in test [4], the binding result is on record as “binds”.

B9: rhMZ134-B (antibody, V domains shown)
VH: EVQLVESGGGLAKPGGSLRLSCAASGFTFSDYYMDWVRQAPGKGLEWVSRISNGGGSTWYADSVKGRFTISRENAKNTLYLQMNSLRAEDTAVYYCARGPEYCSSTYCSSAYCTGSGCYVDYGLDSWGQGVVVTVSS
VL: SYELTQPPSVSVSPGQMARITCGGDNIGSKNVQWYQQKPAQAPVLVIYADSERPSGIPERFSGSNSGNTATLTISGVEAGDEADYYCQVWDSSSDHVLFGGGTRLTVLG
On to B9, for which the binding result in test [1] is on record as “no binding”. Also, in test [5], the “micro-neutralization (MN50) in Vero cells, IC50” value amounted to 0.0038 µg/mL. Besides, the “neutralization in the reporter virus particle (RVP) assay, mutant against wild-type ZIKV H/PF/2013” value in test [2] was found to be 10 fold. Moreover, the “FlowNT50 neutralization, U937-DC-SIGN cells, IC50” value in test [3] worked out at 0.022 µg/mL.

B10: rhMZ121-A (antibody, V domains shown)
VH: QVQLQESGPGLVKPSETLSLTCAVSGYSISSGYYWGWIRQPPGKGLEYIGYISGSSGSTYYNPSLKSRVTISKDTSKNQFSLKLSSVTAADTAVYYCARGNYYSGSYYLFWGQGVLVTVSS
VL: SYELTQPPSVSVSPGQTARITCGGDNLGSKYVHWYQQKPAQAPVLVIYYDSDRPSGIPERFSGSKSGNTATLTISGVEAGDEADYYCQVWDSSSDHWVFGGGTRLTVLG
As for B10, the binding result in test [1] is “no binding”.

B11: MZ4 (antibody, V domains shown)
VH: QVHLQESGPGLVRPSETLSLTCTVSDGSISSYYWSWIRQPPGKGLEWIGSIYYTGSTNYNPSLKSRVTMSVDTSKNQFSLRLNSVTAADTAMYYCAGLDRYSWNEGGDHWGQGILVSVSS
VL: QPVLTQPPSASGTPGQRVSISCSGSRSNLGKNTVNWYQQLPGTAPKLLIYNHSRRPSGVPERFSGSKSGTSASLAISGLQSEDEADYFCAAWDDSLNGLYVFGTGTKVTVLR
notes: also called MHRP ZIKV-1004
As to B11, the figures for the “flow-based neutralization assay using human monocytes (FlowNT), IC50” value in test [6] and in test [3] were 0.0209 µg/mL and 0.0083 µg/mL, respectively. For the same molecule, the binding result in test [4] is “binds”.

B12: MZ1 (antibody, V domains shown)
VH: QVQLQESGPGLVKSSETLSLSCTVSGASISNFYWSWVRQPPGKGLEWMGSIYYTGTITYNPSLKSRLTMSVDTSKNQFSLKLNSVTAADTAVYSCAGLDRFNWNDEGDCWGQGTLVTVFS
VL: QSVLTQPPSASGTPGQRVTISCSGSRSNLGRNTVNWYQQLPGVAPKLLIYSNNRRPSGVPDRFSGSKSDTSASLAISGLQSEDEADYFCAAWDDSLNGLYVFGTGTKVTVLG
As to B12, in test [4], the binding result was “binds”.

B13: rhMZ107-B (antibody, V domains shown)
VH: QVQLQESGPGLVKPSETLSLTCAVSGYSISSGYYWGWIRQPPGKGLEYIGYISGSSGSTYYNPSLKSRVTISKDTSKNQFSLKLSSVTAADTAVYYCARRDRVGSYPYYYGLDSWGQGVLVTVSS
VL: QSVLTQPPSLSASPGASARLPCTLSSDLSVGSKNMYWYQQKPGSAPRLFLYYYSDSDKQLGPGVPNRVSGSKETSSNTAFLLISGLQPEDEADYYCQVYDGSANDVFGSGTKLTVLG
As to B13, in test [1], the binding result was “no binding”. In test [3], the “FlowNT50 neutralization, IC50” value lay within 1 to 3 µg/mL.

B14: rhMZ104-D (antibody, V domains shown)
VH: EVQLVESGGGLAKPGGSLRLSCAASGFTFSDYYMDWVRQAPGKGLEWVSRISNGGGSTWYADSVKGRFTISRENAKNTLYLQMNSLRAEDTAVYYCARERYCSGGVCYAGTKYFDYWGQGVLVTVSS
VL: QPVLTQPPSLSASPGASARLPCTLSSDLSVGSKNMYWYQQKPGSAPRLFLYYYSDSDKQLGPGVPNRVSGSKETSSNTAFLLISGLQPEDEADYYCQVYDSSANWVFGGGTRLTVLG
With B14, the binding result in test [1] is “no binding”.

B15: rhMZ101-B (antibody, V domains shown)
VH: EVQLVESGGGLAKPGGSLRLSCAASGFSFSDYYMYWVRQAPGKGLEWVSGISYTGGSTYYADSVKGRFTISRENAKNTLYLQMDSLRAEDTAVYYCARVLYSGSYYYFDYWGQGVLVTVSS
VL: QSVLTQPPSLSASPGASARLPCTLSSDLSVGSKNMYWYQQKPGSAPRLFLYYYSDSDKQLGPGVPNRVSGSKETSSNTAFLVISGLQPEDEADYYCQVYDSSANIVFGSGTKLTVLG
Regarding B15, the binding result in test [1] was “no binding”.

B16: rhMZ124-D (antibody, V domains shown)
VH: QVQLQESGPGLVKPSETLSLTCAVSGDSISSGYYWGWIRQSPGRGLESFGFISGSGGTTYYNPSLKTRVTISKDTSKNQFSLKLSSVTAADTAVYYCARLGHPRGIAAGGVDYWGQGVLVTVSS
VL: QSALTQPPSLSASPGASARLPCTLSSDFSVGNKNMYWYQQKPGSAPGLFLYFYSDSDNQLGPGVPNRVSGSKEASSNTAFLLISGLQPEDEADYYCQVYDRAANILFGGGTRLTVLG
For the molecule B16, the binding result in test [1] is “no binding”.
